We go through three molecules from patent US20160230155A1.

Where only a bound is given, the exact number is not on record here.

The labels stand for the following.
B1: sulfamidase (SEQ ID NO:2) chemically modified according to the known method (WO 2008/109677): 20 mM sodium meta-periodate 0 °C 6.5 h, dialysis, 100 mM sodium … (enzyme)
chain: GSRPRNALLLLADDGGFESGAYNNSAIATPHLDALARRSLLFRNAFTSVSSCSPSRASLLTGLPQHQNGMYGLHQDVHHFNSFDKVRSLPLLLSQAGVRTGIIGKKHVGPETVYPFDFAYTEENGSVLQVGRNITRIKLLVRKFLQTQDDRPFFLYVAFHDPHRCGHSQPQYGTFCEKFGNGESGMGRIPDWTPQAYDPLDVLVPYFVPNTPAARADLAAQYTTVGRMDQGVGLVLQELRDAGVLNDTLVIFTSDNGIPFPSGRTNLYWPGTAEPLLVSSPEHPKRWGQVSEAYVSLLDLTPTILDWFSIPYPSYAIFGSKTIHLTGRSLLPALEAEPLWATVFGSQSHHEVTMSYPMRSVQHRHFRLVHNLNFKMPFPIDQDFYVSPTFQDLLNRTTAGQPTGWYKDLRHYYYRARWELYDRSRDPHETQNLATDPRFAQLLEMLRDQLAKWQWETHDPWVCAPDGVLEEKLSPQCQPLHNEL
modifications: N-glycans at N(21), N(131), N(244), N(393) of SEQ ID NO:1 disrupted by periodate oxidation and borohydride reduction; FGly50 about 56% converted to Ser50; methionine 184 and methionine 443 almost completely oxidized
B2: sulfamidase (SEQ ID NO:2) chemically modified according to new method 1: 20 mM sodium meta-periodate 0 °C 120 min, 50 mM sodium borohydride 0 °C 120 min (enzyme)
chain: GSRPRNALLLLADDGGFESGAYNNSAIATPHLDALARRSLLFRNAFTSVSSCSPSRASLLTGLPQHQNGMYGLHQDVHHFNSFDKVRSLPLLLSQAGVRTGIIGKKHVGPETVYPFDFAYTEENGSVLQVGRNITRIKLLVRKFLQTQDDRPFFLYVAFHDPHRCGHSQPQYGTFCEKFGNGESGMGRIPDWTPQAYDPLDVLVPYFVPNTPAARADLAAQYTTVGRMDQGVGLVLQELRDAGVLNDTLVIFTSDNGIPFPSGRTNLYWPGTAEPLLVSSPEHPKRWGQVSEAYVSLLDLTPTILDWFSIPYPSYAIFGSKTIHLTGRSLLPALEAEPLWATVFGSQSHHEVTMSYPMRSVQHRHFRLVHNLNFKMPFPIDQDFYVSPTFQDLLNRTTAGQPTGWYKDLRHYYYRARWELYDRSRDPHETQNLATDPRFAQLLEMLRDQLAKWQWETHDPWVCAPDGVLEEKLSPQCQPLHNEL
modifications: N-glycans at N(21), N(131), N(244), N(393) of SEQ ID NO:1 disrupted by periodate oxidation and borohydride reduction; FGly50 about 45% converted to Ser50
B3: sulfamidase (SEQ ID NO:2) chemically modified according to new method 2: 20 mM sodium meta-periodate 0 °C 120 min, 10 mM sodium borohydride 0 °C 120 min (enzyme)
chain: GSRPRNALLLLADDGGFESGAYNNSAIATPHLDALARRSLLFRNAFTSVSSCSPSRASLLTGLPQHQNGMYGLHQDVHHFNSFDKVRSLPLLLSQAGVRTGIIGKKHVGPETVYPFDFAYTEENGSVLQVGRNITRIKLLVRKFLQTQDDRPFFLYVAFHDPHRCGHSQPQYGTFCEKFGNGESGMGRIPDWTPQAYDPLDVLVPYFVPNTPAARADLAAQYTTVGRMDQGVGLVLQELRDAGVLNDTLVIFTSDNGIPFPSGRTNLYWPGTAEPLLVSSPEHPKRWGQVSEAYVSLLDLTPTILDWFSIPYPSYAIFGSKTIHLTGRSLLPALEAEPLWATVFGSQSHHEVTMSYPMRSVQHRHFRLVHNLNFKMPFPIDQDFYVSPTFQDLLNRTTAGQPTGWYKDLRHYYYRARWELYDRSRDPHETQNLATDPRFAQLLEMLRDQLAKWQWETHDPWVCAPDGVLEEKLSPQCQPLHNEL
modifications: N-glycans of SEQ ID NO:1 sites disrupted by periodate oxidation and borohydride reduction; FGly50 about 11.5% converted to Ser50

In the experiment the target is M6P receptors expressed on MEF-1 fibroblasts. The experiment in a line: cell-based or functional assay.
Take B1: the receptor mediated endocytosis in MEF-1 cells: specific activity in cell homogenate relative to unmodified recombinant sulfamidase (% of unmodified recombinant sulfamidase) is below 10.

On to B2, for which the receptor mediated endocytosis in MEF-1 cells: specific activity in cell homogenate relative to unmodified recombinant sulfamidase (% of unmodified recombinant sulfamidase) was below 10.

For the molecule B3, the receptor mediated endocytosis in MEF-1 cells: specific activity in cell homogenate relative to unmodified recombinant sulfamidase (% of unmodified recombinant sulfamidase) is below 10.
